Here are results for one molecule from US20250210128A1 (ECOLE POLYTECHNIQUE FEDERALE DE LAUSANNE EPFL, published 2025).

No end group written: not given here. Some results are limits rather than exact numbers.

What all share (assay): cell-based or functional assay
The target of experiment [1] is Cdes2 CXCR4 design (human).
Experiment [2] has as its target CLdes CXCR4 sensor (Cdes2 design combined with H113N) (human).
Experiment [3] concerns the target Ldes CXCR4 (library-selected combination receptor variant) (human).

Turning to KPVSLSYRCPCRFFESH-NH2 (cysteine pairing not given here) [CXCL12 1-17 peptide, wild-type (17 N-terminal residues of CXCL12)], in experiment [1], the “potency in G-coupling (Gi BRET)” value is 3.2 fold over WT and the “potency in calcium mobilization” value was 3.1 fold over WT. Further, in experiment [2], the “Gi response (potency/sensitivity)” value is over 9 fold over WT. Besides, the Gi potency in experiment [3] is ~11 fold over CXCR4 WT scaffold.
